Patent US20210363269A1 (ALX ONCOLOGY, published 2021)
Residue numbers refer to the chain shown, from its start.

Experiments:
Assay in all cases: SPR, Langmuir fit
human SIRPβ isoform 1 = biological target: T1, human SIRPβ isoform 1 (human, UniProt O00241 30-148)
T1 construct: also called SIRPb; sirpb1
In short: (§1)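 Pre-filtered culture media supplied the scFv-Fc antibody clones, which were captured by anti-human IgG Fc amine-coupled (about 4000 RU) to a GLC chip on a ProteOn XPR36. SIRP analytes were flowed in PBS pH 7.4 with 0.01% Tween-20 at 25° C. Interspot and buffer-blank responses were subtracted from the data, which were then fitted to a 1:1 Langmuir model. Dissociation rate constants (koff) were derived from this fitting.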

[1] = biological target: T2, human SIRP-α v2 D1 domain (human)
T2 construct: also called human v2
In short: as §1

[2] = biological target: T3, cynomolgus SIRP-α D1 domain (cyno2) (cynomolgus monkey, UniProt Q5TFQ8 30-148 (human entry), limits assumed)
T3 chain: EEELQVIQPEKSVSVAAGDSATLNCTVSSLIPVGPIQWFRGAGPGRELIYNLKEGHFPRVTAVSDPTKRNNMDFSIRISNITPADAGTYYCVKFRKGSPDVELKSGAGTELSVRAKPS
In short: as §1

[3] = biological target: T4, human SIRP-α v1 D1 domain (human, UniProt P78324 31-149)
T4 construct: also called human v1
T4 sequence (P78324 31-149 limits assumed): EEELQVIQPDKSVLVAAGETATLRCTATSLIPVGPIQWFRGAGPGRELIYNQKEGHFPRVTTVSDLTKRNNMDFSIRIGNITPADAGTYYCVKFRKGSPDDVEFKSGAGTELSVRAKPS
In short: as §1

[4] = biological target: T5, C57BL/6 mouse SIRP-α D1 domain (mouse (C57BL/6 strain), UniProt P97797 32-148)
T5 sequence: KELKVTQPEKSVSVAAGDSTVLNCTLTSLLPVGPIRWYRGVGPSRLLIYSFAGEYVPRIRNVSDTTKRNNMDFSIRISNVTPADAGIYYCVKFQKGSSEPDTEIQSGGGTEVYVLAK
In short: as §1

[5] = biological target: T6, high affinity SIRP-α D1 variant CV1-3
T6 chain: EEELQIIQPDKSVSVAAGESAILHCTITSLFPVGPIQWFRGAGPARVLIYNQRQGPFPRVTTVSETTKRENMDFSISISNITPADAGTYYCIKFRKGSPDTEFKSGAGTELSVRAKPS
In short: as §1

[6] = biological target: T7, mouse 129 SIRP-α D1 domain (mouse (129 strain), UniProt P97797 32-150)
T7 construct: also called m129
T7 chain: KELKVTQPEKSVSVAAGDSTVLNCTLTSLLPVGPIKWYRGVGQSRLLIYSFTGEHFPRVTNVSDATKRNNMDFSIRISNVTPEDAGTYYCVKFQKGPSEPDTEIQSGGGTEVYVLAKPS
In short: as §1

[7] = biological target: T8, NOD mouse SIRP-α D1 domain (mouse (NOD strain))
T8 chain: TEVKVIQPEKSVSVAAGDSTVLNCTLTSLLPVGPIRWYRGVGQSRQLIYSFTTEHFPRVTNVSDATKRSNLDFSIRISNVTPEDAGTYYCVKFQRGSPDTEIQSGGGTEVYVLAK
In short: as §1

[8] = biological target: T9, cynomolgus SIRP-α D1 domain (cyno1) (cynomolgus monkey, UniProt Q5TFQ8 30-148 (human entry), limits assumed)
T9 chain: T3 chain with D19E, V27A, S28T, A42V, N51H, L52Q, A62P
In short: as §1

human SIRPγ isoform 1 = biological target: T10, human SIRPγ isoform 1 (human, UniProt Q9P1W8 29-147)
T10 construct: also called SIRPg; sirpg
T10 sequence (Q9P1W8 29-147 limits assumed): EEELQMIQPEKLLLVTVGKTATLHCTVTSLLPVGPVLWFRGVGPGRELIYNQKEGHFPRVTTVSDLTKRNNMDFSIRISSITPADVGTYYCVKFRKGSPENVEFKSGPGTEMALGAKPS
In short: as §1

T1 sequence (O00241 30-148 limits assumed): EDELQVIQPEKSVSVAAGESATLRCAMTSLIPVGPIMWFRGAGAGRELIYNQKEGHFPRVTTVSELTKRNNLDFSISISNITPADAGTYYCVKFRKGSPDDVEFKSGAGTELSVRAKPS

B1: S136 (scFv, V domains shown)
VH: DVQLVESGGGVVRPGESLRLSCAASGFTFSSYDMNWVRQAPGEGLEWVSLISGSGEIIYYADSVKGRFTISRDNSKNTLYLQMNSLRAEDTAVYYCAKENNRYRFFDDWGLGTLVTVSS
VL: ETVLTQSPGTLTLSPGERATLTCRASQSVYTYLAWYQEKPGQAPRLLIYGASSRATGIPDRFSGSGSGTEFTLTISSLQSEDFAVYYCQQYYDRPPLTFGGGTKVEIK
notes: also called scFv-Fc form of AB136
koff (human SIRPβ isoform 1): 0.0036 s⁻¹
koff [1]: 0.00161 s⁻¹
koff [2]: 0.00132 s⁻¹
koff [3]: 0.000845 s⁻¹
koff [4]: 0.00478 s⁻¹
koff [5]: 0.00159 s⁻¹
koff [6]: 0.000459 s⁻¹
koff [7]: 0.000386 s⁻¹

B2: S189 (scFv, V domains shown)
VH: DVQLVESGGGVVRPGESLRLSCAASGFTFSSSDMNWVRQAPGEGLEWVSLISGSGEITYYADSVKGRFTISRDNSKNTLYLQMNSLRAEDTAIYYCAKENNMYRFFDYWGLGTLVTVSS
VL: B1 VL with T12S, T22S, E38Q, A43P, Y49H, G50A, S52R, S53N, T56A
koff (human SIRPβ isoform 1): 0.00278 s⁻¹
koff [8]: 0.00331 s⁻¹
koff [1]: 0.00281 s⁻¹
koff [2]: 0.00187 s⁻¹
koff [3]: 0.00106 s⁻¹
koff [4]: 0.0039 s⁻¹
koff [5]: 0.00228 s⁻¹
koff [6]: 0.000837 s⁻¹
koff [7]: 0.000504 s⁻¹

B3: S180 (scFv, V domains shown)
VH: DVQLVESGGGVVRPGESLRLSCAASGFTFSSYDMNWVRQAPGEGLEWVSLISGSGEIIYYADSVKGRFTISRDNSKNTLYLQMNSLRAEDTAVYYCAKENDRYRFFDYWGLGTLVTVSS
VL: B1 VL
notes: also called clone 180
koff (human SIRPβ isoform 1): 0.00375 s⁻¹
koff [8]: 0.0025 s⁻¹
koff [1]: 0.00227 s⁻¹
koff [2]: 0.00138 s⁻¹
koff [3]: 0.0016 s⁻¹
koff [4]: 0.00466 s⁻¹
koff [5]: 0.00307 s⁻¹
koff [6]: 0.000806 s⁻¹
koff [7]: 0.000576 s⁻¹

B4: S185 (scFv, V domains shown)
VH: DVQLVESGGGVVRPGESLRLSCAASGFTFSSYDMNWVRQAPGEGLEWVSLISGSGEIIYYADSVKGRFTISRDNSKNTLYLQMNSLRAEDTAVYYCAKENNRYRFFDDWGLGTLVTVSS
VL: B1 VL with T12S, T22N, T31S, K39R, S53T, Q79E, E81D
koff (human SIRPβ isoform 1): 0.00385 s⁻¹
koff [8]: 0.00178 s⁻¹
koff [1]: 0.00205 s⁻¹
koff [2]: 0.00103 s⁻¹
koff [3]: 0.00122 s⁻¹
koff [4]: 0.00514 s⁻¹
koff [5]: 0.00239 s⁻¹
koff [6]: 0.000717 s⁻¹
koff [7]: 0.000573 s⁻¹

B5: S190 (scFv, V domains shown)
VH: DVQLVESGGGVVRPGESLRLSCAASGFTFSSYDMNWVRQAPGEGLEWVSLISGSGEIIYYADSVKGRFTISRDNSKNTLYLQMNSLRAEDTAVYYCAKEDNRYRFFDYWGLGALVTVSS
VL: B1 VL with A19T
notes: also called clone 190
koff (human SIRPβ isoform 1): 0.00256 s⁻¹
koff [8]: 0.00217 s⁻¹
koff [1]: 0.00199 s⁻¹
koff [2]: 0.00124 s⁻¹
koff [3]: 0.00156 s⁻¹
koff [5]: 0.00308 s⁻¹
koff [6]: 0.000773 s⁻¹
koff [7]: 0.000563 s⁻¹

B6: S175 (scFv, V domains shown)
VH: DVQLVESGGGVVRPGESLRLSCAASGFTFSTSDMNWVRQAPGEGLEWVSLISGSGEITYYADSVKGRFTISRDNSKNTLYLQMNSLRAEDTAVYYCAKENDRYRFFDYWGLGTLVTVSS
VL: B1 VL with T10I, T12S, T56A
koff (human SIRPβ isoform 1): 0.00299 s⁻¹
koff [8]: 0.00177 s⁻¹
koff [1]: 0.00183 s⁻¹
koff [2]: 0.00107 s⁻¹
koff [3]: 0.000839 s⁻¹
koff [4]: 0.0032 s⁻¹
koff [5]: 0.00165 s⁻¹
koff [6]: 0.000605 s⁻¹
koff [7]: 0.000417 s⁻¹

B7: S178 (scFv, V domains shown)
VH: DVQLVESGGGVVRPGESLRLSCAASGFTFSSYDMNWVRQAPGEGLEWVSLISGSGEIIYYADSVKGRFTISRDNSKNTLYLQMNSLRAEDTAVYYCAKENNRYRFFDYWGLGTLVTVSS
VL: B1 VL with T22S, I58V
koff (human SIRPβ isoform 1): 0.00473 s⁻¹
koff [8]: 0.00344 s⁻¹
koff [1]: 0.00317 s⁻¹
koff [2]: 0.00177 s⁻¹
koff [3]: 0.00223 s⁻¹
koff [5]: 0.00426 s⁻¹
koff [6]: 0.00112 s⁻¹
koff [7]: 0.000762 s⁻¹

B8: S184 (scFv, V domains shown)
VH: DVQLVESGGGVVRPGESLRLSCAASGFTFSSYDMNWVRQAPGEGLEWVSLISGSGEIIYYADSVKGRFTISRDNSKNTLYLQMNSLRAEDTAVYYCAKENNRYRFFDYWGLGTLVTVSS
VL: B1 VL with T12S, T22N, G50D, Q79E
koff [8]: 0.0039 s⁻¹
koff [2]: 0.00221 s⁻¹
koff [4]: 0.00422 s⁻¹
koff [5]: 0.00514 s⁻¹
koff [6]: 0.000821 s⁻¹
koff [7]: 0.000638 s⁻¹

B9: S193 (scFv, V domains shown)
VH: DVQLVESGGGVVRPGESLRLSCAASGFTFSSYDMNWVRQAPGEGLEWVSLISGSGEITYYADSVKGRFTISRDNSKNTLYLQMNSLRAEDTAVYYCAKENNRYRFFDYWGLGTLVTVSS
VL: B1 VL with T12S, T22S, G50A, S53T
notes: scFv-Fc format (VL-linker-VH on human IgG1 Fc)
koff [2]: 0.00428 s⁻¹
koff [4]: 0.00389 s⁻¹
koff [6]: 0.00209 s⁻¹
koff [7]: 0.00157 s⁻¹

B10: S177 (scFv, V domains shown)
VH: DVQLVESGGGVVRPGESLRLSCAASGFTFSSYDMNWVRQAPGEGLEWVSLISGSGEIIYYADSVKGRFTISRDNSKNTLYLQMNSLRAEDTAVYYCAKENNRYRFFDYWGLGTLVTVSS
VL: B1 VL with E1K, T12S, S26D, K39R, G50D
koff [8]: 0.00447 s⁻¹
koff [2]: 0.00269 s⁻¹
koff [6]: 0.00104 s⁻¹
koff [7]: 0.000736 s⁻¹

B11: S74 (scFv, V domains shown)
VH: DVQLVESGGGVVRPGESLRLSCAASGFTFSSNAMSWVRQAPGKGLEWLAGISAGDSDTYYPASVKGRFTISRDNPKNTLYLQMNTLTAEDTAVYYCARETWNHLFDYWGLGTLVTVSS
VL: ALTQPASVSANPGETVKIACSGGSYYSYYYGWYQQKSPGSALVTVIYSDDKRPSGIPSRFSGSASGSTATLTITGVRAEDEAVYYCGGYDYSSYTNDFGAGTTLTVL
notes: also called clone 74
koff (human SIRPβ isoform 1): 0.000266 s⁻¹
koff [8]: 0.000337 s⁻¹
koff [1]: 0.000278 s⁻¹
koff [2]: 0.00032 s⁻¹
koff [3]: 0.000161 s⁻¹
koff [4]: 0.00137 s⁻¹
koff [5]: 0.000166 s⁻¹
koff [6]: 0.000412 s⁻¹
koff (human SIRPγ isoform 1): 0.000225 s⁻¹

B12: S26 (scFv, V domains shown)
VH: DVQLVESGGGVVRPGESLRLSCAASGFTFSTYAMSWVRQAPGKGLEWVSGISASGSGTYYGDSVKGRFTMSRDNSKNTLYLQMNSLTAEDTAVYYCARETWNHLFDYWGLGTLVTVSS
VL: ALTQPASVSANLGGTVEITCSGGSSSYYGWYQQKSPGSAPVTVIYSDNQRPSDIPSRFSGSASDSTATLTITGVQVEDEAIYYCGGYDSSTYANTFGAGTTLTVL
notes: also called clone 26
koff (human SIRPβ isoform 1): 0.000129 s⁻¹
koff [8]: 0.000967 s⁻¹
koff [1]: 0.000111 s⁻¹
koff [2]: 0.000743 s⁻¹
koff [3]: 5.81e-05 s⁻¹
koff [5]: 4.74e-05 s⁻¹
koff [6]: 0.00108 s⁻¹
koff [7]: 0.000764 s⁻¹
koff (human SIRPγ isoform 1): 8.35e-05 s⁻¹

B13: S16 (scFv, V domains shown)
VH: DVQLVESGGGVVRPGESLRLSCAVSGFRFSSYAMSWVRQAPGKGLEWVSGISSGGDTYYVDSVKGRFTISRDNSKNTLYLQVNSLTAEDTAIYYCARETWNHLFDYWGLGTLVTVSS
VL: ALTQPASVSANLGETVKITCSGGDSSSHYYGWYQQKSPGSAPVTVIYSDDERPSDIPSRFSGSASGSTATLTITGVRVEDEAIYYCGAYDGSTYANTFGAGTTLTVL
notes: also called clone 16
koff (human SIRPβ isoform 1): 0.000113 s⁻¹
koff [8]: 0.000132 s⁻¹
koff [1]: 0.000111 s⁻¹
koff [2]: 0.000138 s⁻¹
koff [3]: 6.22e-05 s⁻¹
koff [4]: 0.00235 s⁻¹
koff [5]: 0.0001 s⁻¹
koff [6]: 0.000176 s⁻¹
koff [7]: 0.00128 s⁻¹
koff (human SIRPγ isoform 1): 8.17e-05 s⁻¹

B14: S30 (scFv, V domains shown)
VH: B13 VH with A23E, V24A, R28T, Y32D, G55S, D56S, V60G, D61G, V82M, I92V
VL: ALTQPASVSASPGETVEITCSGGSDSSYYYGWYQQKSPGSAPVTVIYSDNKRPSNIPSRFSGSASGSTATLTITGVRVEDEAVYYCGGYDYSTYTNPFGAGTTLTVL
notes: also called clone 30
koff (human SIRPβ isoform 1): 0.000237 s⁻¹
koff [8]: 0.000335 s⁻¹
koff [1]: 0.000188 s⁻¹
koff [2]: 0.000366 s⁻¹
koff [3]: 0.000132 s⁻¹
koff [4]: 0.00244 s⁻¹
koff [5]: 0.000142 s⁻¹
koff [6]: 0.000476 s⁻¹
koff (human SIRPγ isoform 1): 0.000193 s⁻¹

B15: S27 (scFv, V domains shown)
VH: B13 VH
VL: B13 VL with N11D
notes: also called clone 27; scFv-Fc form of AB27
koff (human SIRPβ isoform 1): 8.97e-05 s⁻¹
koff [8]: 0.000138 s⁻¹
koff [1]: 9.97e-05 s⁻¹
koff [2]: 0.000161 s⁻¹
koff [3]: 5.81e-05 s⁻¹
koff [4]: 0.00184 s⁻¹
koff [5]: 8.94e-05 s⁻¹
koff [6]: 0.000136 s⁻¹
koff [7]: 0.0013 s⁻¹
koff (human SIRPγ isoform 1): 9.46e-05 s⁻¹

B16: S55 (scFv, V domains shown)
VH: B13 VH
VL: B13 VL with K17E
notes: also called clone 55
koff (human SIRPβ isoform 1): 6.48e-05 s⁻¹
koff [8]: 9.63e-05 s⁻¹
koff [1]: 7.16e-05 s⁻¹
koff [2]: 0.000116 s⁻¹
koff [3]: 4.18e-05 s⁻¹
koff [4]: 0.00197 s⁻¹
koff [5]: 6e-05 s⁻¹
koff [6]: 0.000143 s⁻¹
koff [7]: 0.00119 s⁻¹
koff (human SIRPγ isoform 1): 4.69e-05 s⁻¹

B17: S29 (scFv, V domains shown)
VH: B13 VH with G54D, G55S, T57A, I92V, L112M
VL: B13 VL with Y33F, V45L, Y85F, A95T
notes: also called clone 29
koff (human SIRPβ isoform 1): 0.000279 s⁻¹
koff [8]: 0.000387 s⁻¹
koff [1]: 0.000178 s⁻¹
koff [2]: 0.000369 s⁻¹
koff [3]: 9.61e-05 s⁻¹
koff [4]: 0.00186 s⁻¹
koff [5]: 0.000343 s⁻¹
koff [6]: 0.00114 s⁻¹
koff (human SIRPγ isoform 1): 0.000216 s⁻¹
